Source: the supplement of paper PMC10724198
± gives the standard deviation of the averaged measurements.

Tests used:
[1] = test system: Saccharomyces cerevisiae; assay: protein stability index of tFT-peptide fusion (C-terminal peptide) (PSI (0-1 scale)); higher = more stable (slower turnover); conditions: genetic background: wild type; temperature: 30 C
[2] = test system: Saccharomyces cerevisiae; assay: as above
Protocol: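 MPS profiling in S. cerevisiae of the tFT-X12 degron library: putative degron peptides plus stable controls, 12 aa, fused to the C-terminus of a sfGFP-mCherry timer. Cells are FACS-sorted into 8 mCherry/sfGFP bins and deep-sequenced. PSI runs from 0 (unstable) to 1 (stable). Backgrounds are wild type, das1Δ and doa10Δ at 30 °C, and wild type, das1Δ, cdc34-1 and cdc53-1 at 37 °C; 2-3 technical replicates each.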

[3] = genetic background: cdc34-1, temperature: 37 C
[4] = genetic background: cdc53-1, temperature: 37 C
[5] = genetic background: das1 deletion, temperature: 30 C
[6] = genetic background: das1 deletion, temperature: 37 C
[7] = genetic background: doa10 deletion, temperature: 30 C
[8] = genetic background: wild type, temperature: 30 C
[9] = genetic background: wild type, temperature: 37 C
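Also: PSI is a weighted mean of sequencing reads over stability bins, variants kept only with over 10 reads, mCherry proximal and sfGFP distal, peptide attached via GGGS linker.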

Sequence | protein stability index [1] | protein stability index [2, 3] | protein stability index [2, 4] | protein stability index [2, 5] | protein stability index [2, 6] | protein stability index [2, 7] | protein stability index [2, 8] | protein stability index [2, 9]
YGHLPLLVLFCV | 0.366 ± 0.049 | 0.459 ± 0.013 | 0.509 ± 0.037 | 0.352 ± 0.035 | 0.541 ± 0.013 | 0.211 ± 0.0055 | 0.237 ± 0.023 | 0.399 ± 0.022
ALCPPLPMLVVA | 0.2097 ± 0.00085 | 0.02987 ± 0.00016 | 0.03 ± 0.0043 | 0.156 ± 0.019 | 0.0912 ± 0.0067 | 0.109 ± 0.01 | 0.137 ± 0.03 | 0.0758 ± 0.0021
VRGSPNVMWKSQ | 0.398 ± 0.035 | 0.675 ± 0.028 | 0.778 ± 0.01 | 0.647 ± 0.028 | 0.733 ± 0.028 | 0.194 ± 0.0042 | 0.238 ± 0.022 | 0.508 ± 0.033
SSRRVVLPLLVA | 0.202 ± 0.027 | 0.336 ± 0.057 | 0.402 ± 0.0094 | 0.309 ± 0.032 | 0.481 ± 0.0058 | 0.123 ± 0.011 | 0.136 ± 0.033 | 0.131 ± 0.027
IWVVIISDSRVG | 0.352 ± 0.0071 | 0.33375 ± 0.00011 |  | 0.283 ± 0.059 | 0.488 ± 0.02 | 0.247 ± 0.019 | 0.342 ± 0.094 | 0.4636 ± 0.0027
GFAFFIGLSFAF | 0.475 ± 0.034 | 0.559 ± 0.015 | 0.588 ± 0.012 | 0.459 ± 0.025 | 0.5794 ± 0.0051 | 0.465 ± 0.0074 | 0.461 ± 0.01 | 0.565 ± 0.011
FFRVCNALLLVC | 0.0759 ± 0.035 | 0.0637 ± 0.058 | 0.0334 ± 0.0086 | 0.148 ± 0.026 | 0.152 ± 0.025 | 0.0531 ± 0.0033 | 0.0394 ± 0.01 | 0.0662 ± 0.015
VFRRWGLIGVIV | 0.378 ± 0.0068 | 0.306 ± 0.026 | 0.326 ± 0.022 | 0.278 ± 0.041 | 0.434 ± 0.018 | 0.181 ± 0.0038 | 0.226 ± 0.032 | 0.353 ± 0.0088
WLTCSLVFNVFW | 0.438 ± 0.0061 | 0.429 ± 0.025 | 0.455 ± 0.007 | 0.406 ± 0.014 | 0.482 ± 0.0057 | 0.448 ± 0.032 | 0.389 ± 0.026 | 0.471 ± 0.015
VLAARVVLLRCR | 0.2612 ± 0.0024 | 0.207 ± 0.0095 | 0.216 ± 0.033 | 0.199 ± 0.031 | 0.335 ± 0.0052 | 0.179 ± 0.0064 | 0.195 ± 0.028 | 0.3113 ± 0.001
SIVDLFRLRSLS | 0.374 ± 0.12 | 0.643 ± 0.022 | 0.722 ± 0.016 | 0.684 ± 0.008 | 0.7295 ± 0.0054 | 0.264 ± 0.032 | 0.298 ± 0.012 | 0.519 ± 0.0074
RLMLSWLALRRC | 0.476 ± 0.0067 | 0.617 ± 0.058 | 0.665 ± 0.015 | 0.601 ± 0.036 | 0.689 ± 0.02 | 0.351 ± 0.026 | 0.344 ± 0.068 | 0.575 ± 0.0095
VFYRPFFVLFFV | 0.114 ± 0.0065 | 0.246 ± 0.026 | 0.228 ± 0.004 | 0.265 ± 0.022 | 0.413 ± 0.011 | 0.113 ± 0.016 | 0.0946 ± 0.022 | 0.152 ± 0.0038
PWFSWLLYSFLF | 0.501 ± 0.0028 | 0.546 ± 0.024 | 0.529 ± 0.031 | 0.526 ± 0.013 | 0.651 ± 0.029 | 0.535 ± 0.016 | 0.458 ± 0.026 | 0.551 ± 0.011
RNCSFRRIQLAM | 0.362 ± 0.045 | 0.651 ± 0.063 | 0.699 ± 0.032 | 0.594 ± 0.0073 | 0.715 ± 0.0059 | 0.162 ± 0.0031 | 0.19 ± 0.022 | 0.298 ± 0.0095
LYLFKVLFFRVF | 0.104 ± 0.048 | 0.122 ± 0.047 | 0.173 ± 0.026 | 0.286 ± 0.045 | 0.458 ± 0.06 | 0.0857 ± 0.0067 | 0.0584 ± 0.016 | 0.102 ± 0.015
IILRPQYVHYFL | 0.454 ± 0.018 | 0.532 ± 0.035 | 0.594 ± 0.027 | 0.497 ± 0.025 | 0.5597 ± 0.00026 | 0.482 ± 0.023 | 0.484 ± 0.025 | 0.5457 ± 0.00084

Sequence | protein stability index [1] | protein stability index [2, 3] | protein stability index [2, 4] | protein stability index [2, 5] | protein stability index [2, 6] | protein stability index [2, 7] | protein stability index [2, 8] | protein stability index [2, 9]
PGFCFFLYYCMM | 0.49 ± 0.034 | 0.4815 ± 0.0025 | 0.558 ± 0.056 | 0.416 ± 0.031 | 0.562 ± 0.011 | 0.368 ± 0.0053 | 0.412 ± 0.018 | 0.5331 ± 0.00095
YHRKAILMCTFS | 0.443 ± 0.078 | 0.506 ± 0.044 | 0.55 ± 0.011 | 0.443 ± 0.02 | 0.5702 ± 0.0011 | 0.3072 ± 0.00055 | 0.299 ± 0.017 | 0.461 ± 0.021
WDPEVVHRLWLN | 0.237 ± 0.019 | 0.587 ± 0.037 | 0.772 ± 0.029 | 0.662 ± 0.034 | 0.766 ± 0.013 | 0.125 ± 0.0063 | 0.14 ± 0.0092 | 0.155 ± 0.019
RFKEKVSIIHKQ | 0.207 ± 0.054 | 0.6446 ± 0.0022 | 0.665 ± 0.061 | 0.693 ± 0.04 | 0.74 ± 0.017 | 0.11 ± 0.0081 | 0.106 ± 0.046 | 0.12487 ± 0.0001
MFLHLGLFIMSH | 0.382 ± 0.037 | 0.348 ± 0.011 | 0.4065 ± 0.0032 | 0.303 ± 0.025 | 0.457 ± 0.0099 | 0.2787 ± 0.0023 | 0.306 ± 0.014 | 0.435 ± 0.006
VAALLCWLHLYA | 0.498 ± 0.011 | 0.602 ± 0.018 | 0.639 ± 0.02 | 0.509 ± 0.019 | 0.622 ± 0.032 | 0.362 ± 0.007 | 0.409 ± 0.029 | 0.563 ± 0.0096
AEVLCEIVIALR | 0.523 ± 0.043 | 0.582 ± 0.011 | 0.675 ± 0.063 | 0.485 ± 0.04 | 0.583 ± 0.0085 | 0.45 ± 0.019 | 0.48 ± 0.038 | 0.543 ± 0.018
ETYCLPRVASGI | 0.733 ± 0.0075 | 0.695 ± 0.021 | 0.733 ± 0.026 | 0.655 ± 0.013 | 0.733 ± 0.029 | 0.666 ± 0.02 | 0.665 ± 0.021 | 0.708 ± 0.02
GNIHHTRFLALL | 0.458 ± 0.0074 | 0.838 ± 0.04 | 0.859 ± 0.012 | 0.7472 ± 0.0026 | 0.835 ± 0.012 | 0.485 ± 0.017 | 0.498 ± 0.013 | 0.693 ± 0.024
GSVCVVCWELVV | 0.378 ± 0.04 | 0.4883 ± 0.0024 | 0.583 ± 0.0091 | 0.344 ± 0.029 | 0.5561 ± 0.0013 | 0.26 ± 0.0046 | 0.293 ± 0.017 | 0.4792 ± 0.0027
FVCLCGFLQVLS | 0.489 ± 0.0078 | 0.517 ± 0.018 | 0.564 ± 0.038 | 0.395 ± 0.036 | 0.632 ± 0.04 | 0.3687 ± 0.0013 | 0.411 ± 0.028 | 0.526 ± 0.028
RNKIWCTVIMRL | 0.4002 ± 0.0026 | 0.51 ± 0.042 | 0.537 ± 0.0088 | 0.453 ± 0.036 | 0.597 ± 0.02 | 0.229 ± 0.01 | 0.234 ± 0.046 | 0.396 ± 0.02
GLGMVIIGLLIG | 0.354 ± 0.022 | 0.176 ± 0.011 | 0.342 ± 0.09 | 0.224 ± 0.032 | 0.432 ± 0.042 | 0.191 ± 0.0035 | 0.227 ± 0.01 | 0.387 ± 0.0056
GTETWVFVLLKF | 0.218 ± 0.031 | 0.102 ± 0.021 | 0.0712 ± 0.011 | 0.169 ± 0.036 | 0.224 ± 0.019 | 0.302 ± 0.026 | 0.165 ± 0.013 | 0.179 ± 0.011
VHTAIFTSWRRL | 0.491 ± 0.028 | 0.696 ± 0.048 | 0.738 ± 0.018 | 0.631 ± 0.04 | 0.7721 ± 0.001 | 0.481 ± 0.018 | 0.494 ± 0.017 | 0.685 ± 0.02
VCFFSSSCFLLV | 0.47 ± 0.035 | 0.58 ± 0.026 | 0.607 ± 0.015 | 0.507 ± 0.021 | 0.623 ± 0.01 | 0.463 ± 0.0036 | 0.45 ± 0.033 | 0.567 ± 0.0069
